Several values for one entry are separate records, joined by “and”; a condition that tells them apart may be missing. Identical values can stand only once.
Columns and labels:
[1] = target: T1, endogenous human PSMA (prostate-specific membrane antigen) expressed on LNCaP human prostate cancer cells (human, UniProt Q04609 1-750); experiment: cell-based or functional assay
[2] = target: T1, endogenous human PSMA …; experiment: flow cytometry on LNCaP cells
Procedure: PSMA expressing LNCaP cells were harvested with enzyme-free Cell Dissociation Buffer (GIBCO) and transferred to V-Bottom 96 well-plates (50,000 cells/well). Cells were incubated on ice for 45 min with serial dilutions of anti-PSMA antibodies PSGB11, PSGB12, PSGC12, PSGD4, PSGD6 and PSA11 in FACS buffer (PBS+ 2% FBS)+NaN₃. […] After 1 wash in FACS buffer, a 1:1000 dilution of Phycoerythrin conjugated anti-Human IgG (γ-chain specific) was added and incubated for 30 min Following a final wash, fluorescence intensity was measured on an Intellicyt High Throughput Flow Cytometer (HTFC).
Data were analyzed using Graphpad Prism software and non-linear regression fit. Data points are shown as the median fluorescence intensity (MFI) of positively labeled cells +/−Standard Error. EC₅₀ values are reported as the concentration of antibody to achieve 50% of maximal PSMA antibodies binding to PSMA expressing cells.

[3] = target: T2, recombinant human PSMA/His (human, UniProt Q04609 44-750); experiment: BLI (Octet), antibody amine-coupled to AR2G sensor, PSMA/His in solution, 1:1 model; FIG. 4, second antibody (PSGB11; printed as PSA11)
T2 construct: not shown: His tag
T2 sequence (Q04609 44-750 limits assumed): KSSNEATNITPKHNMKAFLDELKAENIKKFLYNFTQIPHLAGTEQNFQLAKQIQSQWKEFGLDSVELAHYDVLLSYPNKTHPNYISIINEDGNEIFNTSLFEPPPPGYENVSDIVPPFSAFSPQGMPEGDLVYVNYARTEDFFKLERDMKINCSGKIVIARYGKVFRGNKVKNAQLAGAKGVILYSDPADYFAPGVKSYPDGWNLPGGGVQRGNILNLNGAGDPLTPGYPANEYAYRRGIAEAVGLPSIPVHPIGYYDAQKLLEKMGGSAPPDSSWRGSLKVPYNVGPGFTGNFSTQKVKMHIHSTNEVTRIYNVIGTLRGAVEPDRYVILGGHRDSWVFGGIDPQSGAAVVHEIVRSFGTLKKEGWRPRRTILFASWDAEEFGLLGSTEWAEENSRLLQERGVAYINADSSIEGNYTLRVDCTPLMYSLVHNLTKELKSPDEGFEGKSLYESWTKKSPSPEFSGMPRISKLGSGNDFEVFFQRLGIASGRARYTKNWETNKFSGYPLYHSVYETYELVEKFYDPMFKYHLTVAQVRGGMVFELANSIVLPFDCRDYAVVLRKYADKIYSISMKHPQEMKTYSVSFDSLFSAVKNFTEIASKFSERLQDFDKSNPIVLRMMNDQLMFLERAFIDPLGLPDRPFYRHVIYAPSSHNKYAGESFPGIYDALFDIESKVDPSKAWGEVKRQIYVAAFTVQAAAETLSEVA
Procedure: (§1) Specifically, an amine Reactive Second-Generation (AR2G) sensor was coated with antibody (15 ug/ml in acetic buffer, pH5.0) using Sulfo-N-hydroxysuccinimide/N-Ethyl-N′-(3-dimethylaminopropyl)carbodiimide hydrochloride (Sulfo-NHS/EDC) coupling methodology. The sensors were quenched with 1M pH 8.5 ethanolamine Data was collected by moving sensors to serially diluted recombinant human PSMA/His (in PBS buffer) wells, then the data was dissociated by transferring the sensors to PBS wells. A 1:1 binding model was used to fit the data.

[4] = target: T2, recombinant human PSMA/His; experiment: Octet biolayer interferometry, antibody amine-coupled to AR2G sensor, recombinant human PSMA/His in solution at 2.15 to 68.8 nM, global 1:1 fit (same value in all 6 rows)
Procedure: as §1

[5] = target: T2, recombinant human PSMA/His; experiment: Octet biolayer interferometry, antibody amine-coupled to AR2G sensor, recombinant human PSMA/His in solution at 2.15 to 68.8 nM, global 1:1 fit; column headed kdis(1/s) (same value in all 6 rows)
Procedure: as §1

T1 sequence (Q04609 whole entry): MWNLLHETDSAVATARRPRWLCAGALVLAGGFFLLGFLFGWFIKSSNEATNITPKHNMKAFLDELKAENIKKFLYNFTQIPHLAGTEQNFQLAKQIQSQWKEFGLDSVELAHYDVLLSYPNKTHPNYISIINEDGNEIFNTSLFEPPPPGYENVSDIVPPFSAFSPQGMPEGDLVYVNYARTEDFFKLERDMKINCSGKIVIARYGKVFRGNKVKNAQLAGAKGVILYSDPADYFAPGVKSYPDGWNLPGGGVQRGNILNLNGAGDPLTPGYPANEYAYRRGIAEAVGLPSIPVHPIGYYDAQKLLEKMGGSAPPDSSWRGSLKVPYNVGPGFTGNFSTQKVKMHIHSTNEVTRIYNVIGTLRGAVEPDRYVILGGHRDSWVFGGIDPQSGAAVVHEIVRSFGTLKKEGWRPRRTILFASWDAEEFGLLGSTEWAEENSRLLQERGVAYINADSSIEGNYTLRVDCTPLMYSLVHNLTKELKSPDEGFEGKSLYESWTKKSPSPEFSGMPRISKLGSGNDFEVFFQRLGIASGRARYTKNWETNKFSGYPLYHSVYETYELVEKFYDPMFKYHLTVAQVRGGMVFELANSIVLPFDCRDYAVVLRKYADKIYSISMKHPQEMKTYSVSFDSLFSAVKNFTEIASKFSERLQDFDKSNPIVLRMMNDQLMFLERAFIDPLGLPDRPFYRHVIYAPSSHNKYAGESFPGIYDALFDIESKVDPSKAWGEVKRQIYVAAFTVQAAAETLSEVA

- EC50 [2]: 1.98 nM and 1.83 nM
- Kd [3]: ~0.68 nM
- Kd [4]: 0.677 nM
- kon [4]: 97000 M⁻¹ s⁻¹
- koff [5]: 6.57e-05 s⁻¹
B1: anti-PSMA antibody PSGB11 (antibody, V domains shown)
VH: QVQLVQSGGGLVQPGGSLRLSCAASGFTFSSYWMSWVRQAPGKGLEWVANIKQDGSEKYYVDSVKGRFTISRDNAKNSLYLQMNSLRAEDTAVYYCARVWDYYYDSSGDAFDIWGQGTMVTVSS
VL: EIVLTQSPSTLSASVGDRVTITCRASQSISSWLAWYQQKPGKAPRLLIYAASILQRGVPSRFSGSGSETDFTLTISSLQPEDLATYYCQETYSNLFTFGPGTKVDIK
notes: Fully human IgG
- Cell killing, 2-hours-wash method (IC50, nM); antibody pre-complexed with Protein G-MMAF, LNCaP cells, Cell Titer Glo [1]: 1.6 nM
- Cell killing, No wash method (IC50, nM); antibody pre-complexed with Protein G-MMAF, LNCaP cells, Cell Titer Glo [1]: 0.04 nM

Source: US20160326264A1 (SORRENTO THERAPEUTICS, published 2016)
